Experimental data as given in PMC4560413, “Ethyl Pyruvate Emerges as a Safe and Fast Acting Agent against Trypanosoma brucei by Targeting Pyruvate Kinase Activity” (PLoS ONE, 2015).

Tested on: C=C(OP(=O)(O)O)C(=O)O
Test: purified protein
Settings: Mg2+

pyruvate kinase (PK-1 from rabbit muscle) (Oryctolagus cuniculus), sequence (chain, as listed by the source): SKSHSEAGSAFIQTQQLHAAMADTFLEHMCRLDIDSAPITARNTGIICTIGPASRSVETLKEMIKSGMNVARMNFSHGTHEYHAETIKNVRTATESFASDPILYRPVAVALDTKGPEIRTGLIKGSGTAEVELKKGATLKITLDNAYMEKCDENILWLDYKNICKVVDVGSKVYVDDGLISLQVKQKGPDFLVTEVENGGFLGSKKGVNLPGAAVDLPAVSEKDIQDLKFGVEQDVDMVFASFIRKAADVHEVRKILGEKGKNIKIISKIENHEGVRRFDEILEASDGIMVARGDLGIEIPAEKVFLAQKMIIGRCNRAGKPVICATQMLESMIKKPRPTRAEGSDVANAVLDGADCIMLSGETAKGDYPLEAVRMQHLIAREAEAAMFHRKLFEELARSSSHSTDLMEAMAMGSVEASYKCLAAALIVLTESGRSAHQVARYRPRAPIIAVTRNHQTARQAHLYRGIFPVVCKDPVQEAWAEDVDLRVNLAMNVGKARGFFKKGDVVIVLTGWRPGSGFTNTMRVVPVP

“pyruvate kinase (PK-1 from rabbit muscle) (Oryctolagus cuniculus)” showed a Km of 220 ± 20 µM.
